Data from the supplement of paper PMC10567573.

B1: SPOPL (parent)
chain: YTGRAPNLDKMADNLLAAADKYAL

Variants of: B1
Test: protein stability index of a GFP-peptide fusion (GPS, HEK-293T) (PSI 1-6); higher = more stable
Settings: c terminus: a fixed tail appended
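Also: lentivirally expressed fusions sorted by FACS into six bins by GFP to DsRed ratio, PSI derived from sequencing read proportions per bin multiplied by bin number.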

Question: Which protein stability index does the source give for YTGRAPNLRKMADNLLAAADKYAL here?
Answer: The protein stability index was 1.2.

Question: For YTGRAPNLMKMADNLLAAADKYAL, which protein stability index is on record?
Answer: The protein stability index was 2.23.

Question: With YTGRAPNLDKMADNLLAAADVYAL as the variant, how does the protein stability index read?
Answer: The protein stability index was 2.53.

Question: For YTGRAPNLDKMADNLLAAADLYAL, which protein stability index is on record?
Answer: Its protein stability index is 2.02.

Question: For YTGRAPNLDKMADNLLAAADCYAL, which protein stability index is on record?
Answer: The protein stability index was 1.88.

Question: For YTGRAPNLDRMADNLLAAADKYAL, which protein stability index is on record?
Answer: The protein stability index was 1.43.

Question: With YTGRAPNLDMMADNLLAAADKYAL as the variant, how does the protein stability index read?
Answer: The protein stability index was 2.41.

Question: With YTGRAPNLDYMADNLLAAADKYAL as the variant, how does the protein stability index read?
Answer: The protein stability index was 1.61.

Question: For YTGRAPNLDKMADNLLAASDKYAL, which protein stability index is on record?
Answer: Its protein stability index is 1.65.

Question: Which protein stability index does the source give for YTGRAPNLDKMADNLLAAHDKYAL here?
Answer: The protein stability index was 2.24.

Question: Which protein stability index does the source give for YTGRAPNLDKMADNLLAAQDKYAL here?
Answer: The protein stability index was 2.77.

Question: Which protein stability index does the source give for YTGRAPNLDKMADNLLAAIDKYAL here?
Answer: Its protein stability index is 2.76.

Question: With YTGRAPNLDKMADNLLAAMDKYAL as the variant, how does the protein stability index read?
Answer: Its protein stability index is 2.22.

Question: For YTGRAPNLDKMADNLLAATDKYAL, which protein stability index is on record?
Answer: The protein stability index was 1.99.

Question: With YTGRAPTLDKMADNLLAAADKYAL as the variant, how does the protein stability index read?
Answer: The protein stability index was 2.06.

Question: For YTGRAPSLDKMADNLLAAADKYAL, which protein stability index is on record?
Answer: The protein stability index was 1.65.

Question: For YTGRAPCLDKMADNLLAAADKYAL, which protein stability index is on record?
Answer: Its protein stability index is 1.86.

Question: For YTGRAPQLDKMADNLLAAADKYAL, which protein stability index is on record?
Answer: Its protein stability index is 2.39.

Question: For YTGRAPDLDKMADNLLAAADKYAL, which protein stability index is on record?
Answer: The protein stability index was 2.34.

Question: Which protein stability index does the source give for YTGRAPNLDKMADNLLAAALKYAL here?
Answer: Its protein stability index is 1.84.

Question: Which protein stability index does the source give for YTGRAPNLDKMADNLLAAACKYAL here?
Answer: Its protein stability index is 1.99.

Question: With YTGRAPNLDKMADNLLAAAIKYAL as the variant, how does the protein stability index read?
Answer: The protein stability index was 1.71.

Question: For YTGRAPNLDKMADNLLAAAKKYAL, which protein stability index is on record?
Answer: The protein stability index was 1.4.

Question: For YTGRAPNLDKMADNLLAAAFKYAL, which protein stability index is on record?
Answer: The protein stability index was 1.39.

Question: Which protein stability index does the source give for YTGRATNLDKMADNLLAAADKYAL here?
Answer: Its protein stability index is 2.16.

Question: For YTGRAENLDKMADNLLAAADKYAL, which protein stability index is on record?
Answer: Its protein stability index is 2.82.

Question: For YTGRAYNLDKMADNLLAAADKYAL, which protein stability index is on record?
Answer: Its protein stability index is 1.75.

Question: Which protein stability index does the source give for YTGRAFNLDKMADNLLAAADKYAL here?
Answer: Its protein stability index is 2.09.

Question: With YTGRAWNLDKMADNLLAAADKYAL as the variant, how does the protein stability index read?
Answer: Its protein stability index is 5.

Question: Which protein stability index does the source give for YTGRAPNLDKMADGLLAAADKYAL here?
Answer: Its protein stability index is 2.05.

Question: Which protein stability index does the source give for YTGRAPNLDKMADQLLAAADKYAL here?
Answer: The protein stability index was 2.01.

Question: With YTGRAPNLDKMADSLLAAADKYAL as the variant, how does the protein stability index read?
Answer: The protein stability index was 2.38.

Question: Which protein stability index does the source give for YTGRAPNLDKMADELLAAADKYAL here?
Answer: The protein stability index was 2.16.

Question: For YTGRAPNLDKMADYLLAAADKYAL, which protein stability index is on record?
Answer: Its protein stability index is 1.86.

Question: For YTGRAPNLDKMACNLLAAADKYAL, which protein stability index is on record?
Answer: Its protein stability index is 2.17.

Question: Which protein stability index does the source give for YTGRAPNLDKMAGNLLAAADKYAL here?
Answer: The protein stability index was 3.29.

Question: For YTGRAPNLDKMAKNLLAAADKYAL, which protein stability index is on record?
Answer: Its protein stability index is 1.68.

Question: With YTGRAPNLDKMAPNLLAAADKYAL as the variant, how does the protein stability index read?
Answer: Its protein stability index is 2.2.

Question: For YTGRAPNLDKMASNLLAAADKYAL, which protein stability index is on record?
Answer: The protein stability index was 2.04.

Question: For YIGRAPNLDKMADNLLAAADKYAL, which protein stability index is on record?
Answer: Its protein stability index is 1.98.

Question: For YSGRAPNLDKMADNLLAAADKYAL, which protein stability index is on record?
Answer: The protein stability index was 2.75.

Question: With YGGRAPNLDKMADNLLAAADKYAL as the variant, how does the protein stability index read?
Answer: Its protein stability index is 2.79.

Question: Which protein stability index does the source give for DTGRAPNLDKMADNLLAAADKYAL here?
Answer: Its protein stability index is 4.63.

Question: With TTGRAPNLDKMADNLLAAADKYAL as the variant, how does the protein stability index read?
Answer: Its protein stability index is 3.37.

Question: With QTGRAPNLDKMADNLLAAADKYAL as the variant, how does the protein stability index read?
Answer: The protein stability index was 4.13.

Question: With KTGRAPNLDKMADNLLAAADKYAL as the variant, how does the protein stability index read?
Answer: Its protein stability index is 3.61.

Question: For ITGRAPNLDKMADNLLAAADKYAL, which protein stability index is on record?
Answer: Its protein stability index is 2.16.

Question: With YTGRSPNLDKMADNLLAAADKYAL as the variant, how does the protein stability index read?
Answer: The protein stability index was 2.33.

Question: Which protein stability index does the source give for YTGRNPNLDKMADNLLAAADKYAL here?
Answer: The protein stability index was 3.

Question: For YTGREPNLDKMADNLLAAADKYAL, which protein stability index is on record?
Answer: The protein stability index was 3.58.

Question: Which protein stability index does the source give for YTGRDPNLDKMADNLLAAADKYAL here?
Answer: The protein stability index was 3.19.

Question: With YTGRAPNLDKMADNLLGAADKYAL as the variant, how does the protein stability index read?
Answer: Its protein stability index is 2.79.

Question: With YTGRAPNLDKMADNLLSAADKYAL as the variant, how does the protein stability index read?
Answer: The protein stability index was 2.27.

Question: With YTGRAPNLDKMADNLLFAADKYAL as the variant, how does the protein stability index read?
Answer: Its protein stability index is 2.04.

Question: With YTGRAPNLDKMADNLLEAADKYAL as the variant, how does the protein stability index read?
Answer: Its protein stability index is 2.98.

Question: Which protein stability index does the source give for YTGRAPNLDKMADNLLVAADKYAL here?
Answer: The protein stability index was 2.

Question: With YTGRAPNLDKMADNLLMAADKYAL as the variant, how does the protein stability index read?
Answer: The protein stability index was 1.4.

Question: Which protein stability index does the source give for YTGRAPNLDKMADNLLRAADKYAL here?
Answer: Its protein stability index is 2.05.

Question: Which protein stability index does the source give for YTGRAPNLDKTADNLLAAADKYAL here?
Answer: Its protein stability index is 2.62.

Question: With YTGRAPNLDKFADNLLAAADKYAL as the variant, how does the protein stability index read?
Answer: The protein stability index was 1.73.

Question: Which protein stability index does the source give for YTGRAPNRDKMADNLLAAADKYAL here?
Answer: Its protein stability index is 2.93.

Question: Which protein stability index does the source give for YTGRAPNVDKMADNLLAAADKYAL here?
Answer: Its protein stability index is 3.88.

Question: With YTGRAPNYDKMADNLLAAADKYAL as the variant, how does the protein stability index read?
Answer: The protein stability index was 1.36.

Question: For YTGRAPNFDKMADNLLAAADKYAL, which protein stability index is on record?
Answer: Its protein stability index is 1.9.

Question: Which protein stability index does the source give for YTGIAPNLDKMADNLLAAADKYAL here?
Answer: The protein stability index was 1.96.

Question: For YTGHAPNLDKMADNLLAAADKYAL, which protein stability index is on record?
Answer: Its protein stability index is 2.04.

Question: For YTGKAPNLDKMADNLLAAADKYAL, which protein stability index is on record?
Answer: Its protein stability index is 2.41.

Question: For YTGMAPNLDKMADNLLAAADKYAL, which protein stability index is on record?
Answer: The protein stability index was 1.69.

Question: Which protein stability index does the source give for YTGNAPNLDKMADNLLAAADKYAL here?
Answer: The protein stability index was 2.09.

Question: With YTGFAPNLDKMADNLLAAADKYAL as the variant, how does the protein stability index read?
Answer: Its protein stability index is 2.12.

Question: Which protein stability index does the source give for YTGGAPNLDKMADNLLAAADKYAL here?
Answer: The protein stability index was 2.74.

Question: Which protein stability index does the source give for YTGLAPNLDKMADNLLAAADKYAL here?
Answer: The protein stability index was 3.6.

Question: Which protein stability index does the source give for YTGDAPNLDKMADNLLAAADKYAL here?
Answer: The protein stability index was 3.

Question: For YTGAAPNLDKMADNLLAAADKYAL, which protein stability index is on record?
Answer: The protein stability index was 2.38.

Question: With YTGRAPNLDKMADNLVAAADKYAL as the variant, how does the protein stability index read?
Answer: Its protein stability index is 2.2.

Question: Which protein stability index does the source give for YTGRAPNLDKMADNLPAAADKYAL here?
Answer: The protein stability index was 2.32.

Question: Which protein stability index does the source give for YTGRAPNLDKMADNLYAAADKYAL here?
Answer: The protein stability index was 2.06.

Question: Which protein stability index does the source give for YTGRAPNLDKMADNLSAAADKYAL here?
Answer: The protein stability index was 1.84.

Question: For YTGRAPNLDKMADNLMAAADKYAL, which protein stability index is on record?
Answer: Its protein stability index is 2.37.

Question: For YTGRAPNLDKMADNLEAAADKYAL, which protein stability index is on record?
Answer: The protein stability index was 3.22.

Question: Which protein stability index does the source give for YTGRAPNLDKMADNLKAAADKYAL here?
Answer: Its protein stability index is 3.18.

Question: With YTGRAPNLDKMADNLLAAADKMAL as the variant, how does the protein stability index read?
Answer: The protein stability index was 1.93.

Question: For YTGRAPNLDKMADNLLAAADKVAL, which protein stability index is on record?
Answer: The protein stability index was 2.27.

Question: Which protein stability index does the source give for YTGRAPNLDKMADNLLAAADKRAL here?
Answer: The protein stability index was 3.05.

Question: With YTGRAPNLDKMADNLLAAADKFAL as the variant, how does the protein stability index read?
Answer: Its protein stability index is 1.92.

Question: For YTGRAPNLDKMADNLLAAADKEAL, which protein stability index is on record?
Answer: Its protein stability index is 3.04.

Question: With YTGRAPNLDKMADNLLAAADKIAL as the variant, how does the protein stability index read?
Answer: Its protein stability index is 2.22.

Question: For YTGRAPNLDKMADNLLARADKYAL, which protein stability index is on record?
Answer: The protein stability index was 1.56.

Question: With YTGRAPNLDKMADNLLAKADKYAL as the variant, how does the protein stability index read?
Answer: The protein stability index was 1.77.

Question: For YTGRAPNLDKMADNLLAEADKYAL, which protein stability index is on record?
Answer: The protein stability index was 2.42.

Question: Which protein stability index does the source give for YTGRAPNLDKMADNLLAYADKYAL here?
Answer: The protein stability index was 2.25.

Question: With YTGRAPNLDKMADNLLAWADKYAL as the variant, how does the protein stability index read?
Answer: The protein stability index was 2.62.

Question: With YTGRAPNLDKMADNLLAPADKYAL as the variant, how does the protein stability index read?
Answer: The protein stability index was 2.18.

Question: Which protein stability index does the source give for YTGRAPNLDKMADNLLAMADKYAL here?
Answer: Its protein stability index is 1.9.
